According to paper PMC3324987 (Frontiers in Molecular Neuroscience, 2012):
Values belong to the molecule of their own block, whether it stands above or below them.

Tests used:
apo-CaBP1 = assay: ITC and HSQC of NSCaTE binding to apo-CaBP1; set-up: species or system human; details: ITC and NMR, compared to Ca^2+-CaBP1
[1] = target: N-lobe of calmodulin (residues 1-77) (UniProt P0DP23 2-78); assay: other fluorescence titration
[2] = target: C-lobe of calmodulin (residues 78-148) (UniProt P0DP23 79-149); assay: other fluorescence titration

binding to apo-CaBP1 (apo-CaBP1): extremely weak
Molecule: long NSCaTE peptide: biosynthetically produced N-terminal region of Cav1.2 (residues 1–68), expressed in E. coli

Ka [1]: 1.39e+06 M⁻¹
Ka [2]: 232000 M⁻¹
B1: long NSCaTE peptide, Cav1.2 N-terminal cytoplasmic region residues 1-68 (domain or fragment)
chain: MVNENTRMYIPEENHQGSNYGSPRPAHANMNANAAAGLAPEHIPTPGAALSWQAAIDAARQAKLMGSA
